± gives the standard deviation of the averaged measurements.
Columns and labels:
Saccharomyces cerevisiae [1] = experiment: protein stability index of tFT-peptide fusion (C-terminal peptide) (PSI (0-1 scale)); higher = more stable (slower turnover); conditions: genetic background: wild type; temperature: 30 C
Saccharomyces cerevisiae [2] = experiment: as above
Description: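 MPS profiling in S. cerevisiae of the tFT-X12 degron library: putative degron peptides plus stable controls, 12 aa, fused to the C-terminus of a sfGFP-mCherry timer. Cells are FACS-sorted into 8 mCherry/sfGFP bins and deep-sequenced. PSI runs from 0 (unstable) to 1 (stable). Backgrounds are wild type, das1Δ and doa10Δ at 30 °C, and wild type, das1Δ, cdc34-1 and cdc53-1 at 37 °C; 2-3 technical replicates each.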

[3] = genetic background: cdc34-1, temperature: 37 C
[4] = genetic background: cdc53-1, temperature: 37 C
[5] = genetic background: das1 deletion, temperature: 30 C
[6] = genetic background: das1 deletion, temperature: 37 C
[7] = genetic background: doa10 deletion, temperature: 30 C
[8] = genetic background: wild type, temperature: 30 C
[9] = genetic background: wild type, temperature: 37 C
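Further: PSI is a weighted mean of sequencing reads over stability bins, variants kept only with over 10 reads, mCherry proximal and sfGFP distal, peptide attached via GGGS linker.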

| Sequence | protein stability index (Saccharomyces cerevisiae [1]) | protein stability index (Saccharomyces cerevisiae [2]; [3]) | protein stability index (Saccharomyces cerevisiae [2]; [4]) | protein stability index (Saccharomyces cerevisiae [2]; [5]) | protein stability index (Saccharomyces cerevisiae [2]; [6]) | protein stability index (Saccharomyces cerevisiae [2]; [7]) | protein stability index (Saccharomyces cerevisiae [2]; [8]) | protein stability index (Saccharomyces cerevisiae [2]; [9]) |
| --- | --- | --- | --- | --- | --- | --- | --- | --- |
| ACGAGFIILLGL | 0.535 ± 0.077 | 0.641 ± 0.086 | 0.613 ± 0.014 | 0.524 ± 0.022 | 0.65 ± 0.015 | 0.571 ± 0.033 | 0.522 ± 0.019 | 0.633 ± 0.008 |
| ACIFDMMWFWLF | 0.499 ± 0.032 | 0.692 ± 0.068 | 0.721 ± 0.008 | 0.577 ± 0.034 | 0.75 ± 0.0093 | 0.427 ± 0.02 | 0.46 ± 0.02 | 0.573 ± 0.006 |
| ACLLCVCVESRE | 0.494 ± 0.013 | 0.531 ± 0.045 | 0.575 ± 0.053 | 0.414 ± 0.03 | 0.61303 ± 0.00036 | 0.38 ± 0.016 | 0.41 ± 0.015 | 0.5691 ± 0.0014 |
| AELLMLRIFFLF | 0.132 ± 0.027 | 0.281 ± 0.0063 | 0.48 ± 0.036 | 0.333 ± 0.019 | 0.491 ± 0.022 | 0.091 ± 0.0049 | 0.0708 ± 0.019 | 0.0944 ± 0.032 |
| AFFGIYLICFIV | 0.207 ± 0.073 | 0.118 ± 0.008 | 0.2044 ± 0.00042 | 0.225 ± 0.024 | 0.382 ± 0.014 | 0.1711 ± 0.001 | 0.125 ± 0.007 | 0.146 ± 0.013 |
| AFRFLAVCVGCG | 0.263 ± 0.068 | 0.144 ± 0.009 | 0.158 ± 0.013 | 0.218 ± 0.02 | 0.291 ± 0.0069 | 0.168 ± 0.0081 | 0.205 ± 0.018 | 0.24 ± 0.0071 |
| AFRSPLLMLLVL | 0.3468 ± 0.00084 | 0.336 ± 0.0057 | 0.381 ± 0.0068 | 0.32 ± 0.028 | 0.426 ± 0.01 | 0.32 ± 0.0039 | 0.262 ± 0.031 | 0.354 ± 0.0056 |
| ALFISLAIWNWS | 0.232 ± 0.012 | 0.0849 ± 0.024 | 0.154 ± 0.018 | 0.165 ± 0.027 | 0.318 ± 0.01 | 0.142 ± 0.011 | 0.139 ± 0.0085 | 0.2526 ± 0.00054 |
| AMRTIFFPAFVS | 0.28 ± 0.075 | 0.543 ± 0.033 | 0.708 ± 0.0082 | 0.655 ± 0.0093 | 0.743 ± 0.018 | 0.158 ± 0.014 | 0.157 ± 0.013 | 0.222 ± 0.0069 |
| APGLLPPCLLVV | – | 0.374 ± 0.033 | 0.387 ± 0.013 | 0.307 ± 0.045 | 0.458 ± 0.014 | 0.263 ± 0.0047 | 0.3 ± 0.02 | 0.389 ± 0.0066 |
| APLSPLLPPFLC | 0.391 ± 0.088 | 0.693 ± 0.036 | 0.729 ± 0.012 | 0.661 ± 0.024 | 0.74816 ± 0.00015 | 0.3485 ± 0.0016 | 0.369 ± 0.05 | 0.595 ± 0.013 |
| APPPLFLIVLHL | 0.424 ± 0.018 | 0.469 ± 0.0062 | 0.565 ± 0.0062 | 0.399 ± 0.036 | 0.604 ± 0.028 | 0.324 ± 0.019 | 0.3 ± 0.011 | 0.521 ± 0.026 |

— the supplement of paper PMC10724198
